Data taken from patent US9314499.

Target: tissue plasminogen activator (human) (UniProt P00750)
Experiment: cell-based or functional assay

Chain of UniProt P00750 (P00750 36-562 limits assumed): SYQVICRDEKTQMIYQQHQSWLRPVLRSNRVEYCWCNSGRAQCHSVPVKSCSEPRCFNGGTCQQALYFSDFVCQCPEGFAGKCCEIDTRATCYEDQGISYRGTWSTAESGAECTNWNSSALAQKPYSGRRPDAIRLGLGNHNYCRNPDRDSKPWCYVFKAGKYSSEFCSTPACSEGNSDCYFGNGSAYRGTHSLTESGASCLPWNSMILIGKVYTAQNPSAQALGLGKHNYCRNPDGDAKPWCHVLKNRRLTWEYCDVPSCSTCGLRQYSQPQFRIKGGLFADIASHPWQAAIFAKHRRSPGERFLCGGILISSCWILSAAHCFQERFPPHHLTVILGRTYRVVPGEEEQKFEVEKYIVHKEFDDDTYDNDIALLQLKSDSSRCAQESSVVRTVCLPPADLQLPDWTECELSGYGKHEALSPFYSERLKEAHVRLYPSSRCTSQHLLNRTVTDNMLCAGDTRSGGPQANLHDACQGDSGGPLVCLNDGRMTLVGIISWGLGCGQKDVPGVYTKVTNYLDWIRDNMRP

- in vitro plasmin-generating capability of tPA (plasmin activity assay): 4 fold
Substance: Histidine-tagged recombinant human Annexin A2 (from UniProt Q3ZCQ2 1-193)
